Source: the supplement of paper PMC12764529
± gives the half width of the 95% confidence interval.

Tests used:
[1] = folding stability dG unfold from trypsin proteolysis; higher = more stable
In short: (§1)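 Sequencing followed digestion of designed mini-proteins with trypsin and chymotrypsin, each at 11 concentrations in threefold dilutions together with a no-protease condition. The mini-proteins were under 80 residues, had no cysteine, sat in a PA-tagged cDNA display construct, and were kept only if AlphaFold2 dimer inter-PAE was above 15. From the counts, Bayesian fitting gave K50, and unfolding free energy was derived against a sequence-predicted unfolded-state K50 and a shared folded-state K50, per protease or combined.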

[2] = folding stability dG unfold from chymotrypsin proteolysis; higher = more stable
In short: as §1

[3] = folding stability dG unfold (combined trypsin and chymotrypsin); higher = more stable
In short: as §1

Sequence | folding stability dG unfold [1] [kcal/mol] | folding stability dG unfold [2] [kcal/mol] | folding stability dG unfold [3] [kcal/mol]
SAGGWRLRIHIENPGNGRWITHTFPMPPGNIEKIADDMLEMLPGWKITGVEIVYEPGWITITARVKPKSAGG [r13_196_TrROS] | 2.252 ± 0.016 | 2.9 ± 0.035 | 2.74 ± 0.064
SAGGWWIITIEFPNPEQIKKILEEAGWKVDIERRPNGSVTIFFPPDDVDKIKKAFPGFEINIHPIPPNSAGG [r13_261_TrROS] | 3.58 ± 0.11 | 4.45 ± 0.093 | 4.25 ± 0.089
SAGGYKYKREKYRDPENGQPRERYKREPPPPPPPSISININAPPEMADKIADILQDLLPNMPVGINGSAGGS [r8_437_TrROS] | 2.45 ± 0.088 | 3.04 ± 0.23 | 2.84 ± 0.21
SAGGYLVRIEMPNGREHEYPVKDIDDAASRFRDHLGFPPNMKLKVEVYDPKDGEKKERTLTIPMPKPKSAGG [r13_145_TrROS] | 0.0313 ± 0.092 | 0.504 ± 0.12 | 0.378 ± 0.069
SAGGYVRIRIELQEKRKPPDGKQQQRKKKITITVRLPPNEEMRMPDGKDIDPGKSAEELADYALDNLSAGGS [r16_440_TrROS] | 2.16 ± 0.08 | 1.68 ± 0.077 | 1.92 ± 0.15
SAGGYYIEFRNPNNGNTVTIPPELIEAIKSGDPDKLKKLPPWFRDALDNIDRVEIQPPPPVPPVPPGKSAGG [r13_233_TrROS] | 0.68 ± 0.051 | 0.958 ± 0.041 | 0.887 ± 0.053
SAGIEIDIEVDPENGFIKITAKIHNPDGNPVYEMEMWIPVDNGRIYRVDIRINPDNGKIELDIEPFPLNSAG [r5_34_TrROS] | 3.48 ± 0.29 | 3.88 ± 0.24 | 3.79 ± 0.26
SAGITILFNSAEDAENFAEELAEDYPNMNVTIKIHDPEHGEPVEIPVKIPPPPPKPKRDPDNGNKKYEGSAG [r5_870_TrROS] | -0.132 ± 0.043 | 0.506 ± 0.053 | 0.286 ± 0.13
SAGITLHPDARIILKNPSTGEKIELRSETIRRLIAEILGTDRPEEITAEQINAFALSLGFEEAEFEEPSAGG [r19_67_TrMRF] | 2.29 ± 0.031 | 3.312 ± 0.011 | 3.02 ± 0.045
SAGKDEKLVKVIVKFNDKTFEVVVKEEDLKKLVESGILKVVGKIPGKNIVAIKVEVPPPKGDPVGPTPVSAG [r5_868_TrMRF] | 2.08 ± 0.24 | 2.82 ± 0.14 | 2.5 ± 0.17
SAGKELVLRVRLYRPVPLEEPRVEEREVVVPRKEDEPIEKVVEELLEPDWVLEVEVFDEGKLIERYYTHSAG [r5_278_TrMRF] | 0.721 ± 0.075 | 1.36 ± 0.22 | 1.11 ± 0.2
SAGKIEITVKPDGTVIIKVTVEVDGKKLELTIEVPPEMTIEEIIEKLKELAEELGVEKVEVEIVPLPPSAGG [r19_31_TrROS_Hall] | 3.9 ± 0.85 | 2.9 ± 0.45 | > 6
SAGKIEVKKNYVVIEIKVEGKELKLVIKVKTKEEQEKALELVKKLEEELKKEGLEVEVKVEVFKEGEEVSAG [r5_823_TrROS_Hall] | 2.2 ± 0.15 | 3 ± 0.16 | 2.8 ± 0.23
SAGKIKIEKENGEVKIEIEVPEEEIEKLKKLLEELKKKGFEVEKVEVKVEKKEDGTVKVTIKVKIKPKPSAG [r5_739_TrROS_Hall] | 1.91 ± 0.13 | 3.42 ± 0.41 | 2.99 ± 0.51
SAGKIKKIEVKEVTNENGEKYKKITIEVEKEGKKVEIIVNKNGEKFIKVEKNGKTITLPLDEALELLKKSAG [r5_157_TrROS_Hall] | 1.23 ± 0.088 | 1.19 ± 0.13 | 1.23 ± 0.3
SAGKIKPGQKIKIKITSIEKLKDGTIKIKAEIELEEKGYKITIEAEIKYDKKTKKLTIKVKIKIEPKPSAGG [r19_342_TrROS_Hall] | 3.26 ± 0.14 | 4.14 ± 0.18 | 3.88 ± 0.24
SAGKIKVYYDPKLGRIIEIPLPNGKRIRIYLPKNKLIIVAEDPEGNKAIPIEIETKIGDIIKIIKEIAGSAG [r5_820_TrMRF] | 2.9 ± 0.075 | 3.57 ± 0.11 | 3.16 ± 0.18
SAGKINIPPDTDITVKISTEKKPNPPSPEEEEYVGVSYIKVKKNPDGSIEVEEEKFEIISKEEAEKMGLSAG [r5_340_JUSTAS] | 0.16 ± 0.13 | 0.177 ± 0.31 | 0.23 ± 0.28
SAGKISSIDISPFKLPDGSYPYLLRVSFPDLGTEVDFIFPAKPSDAINFAKELRKSLPNIPLTFSNISSAGG [r19_317_TrMRF] | 1.94 ± 0.05 | 1.89 ± 0.11 | 1.87 ± 0.11
SAGKKKFITIVIPIEKKEKLKKAVEELKKKFNAKELAVIPNPEKNEIIEVVVKETKDAIIKIVIIAKESAGG [r19_262_TrMRF] | 1.68 ± 0.036 | 1.26 ± 0.029 | 1.45 ± 0.089
SAGKKKIKIKLENGETKTLEIKPGETVEITFPNGLKATITKVKDGKIEIKVKEVYVKDKNGKWKKLKDLSAG [r5_417_TrROS_Hall] | 1.72 ± 0.066 | 2.6 ± 0.17 | 2.29 ± 0.29

Sequence | folding stability dG unfold [1] [kcal/mol] | folding stability dG unfold [2] [kcal/mol] | folding stability dG unfold [3] [kcal/mol]
SAGKKKKIKIKVTIVVPVKTKEDVELMKELAEKFAPELGKETAKKLGLPPEVEEIEVDVNILIVSPEELSAG [r5_436_TrMRF] | 1.48 ± 0.14 | 1.89 ± 0.13 | 1.88 ± 0.2
SAGKKKKKKLKITIEITYNKETNTVTIKITVDGKEITVEVKAKSKEEALLNALKELEKKLNIKIKEVKLSAG [r5_251_TrROS_Hall] | 1.36 ± 0.13 | 2.1 ± 0.18 | 2.27 ± 0.36
SAGKKKKKVKKKTVKLTITVKLKPGMTEEEALEKVKELAKALLPPGAKIKEVKFDKETKTVTVEIELTSAGG [r19_81_TrROS_Hall] | 2.15 ± 0.054 | 2 ± 0.23 | 2.25 ± 0.19
SAGKKKTVTIYLRVETPEEARKLVEELAKKLGAEVTSVEIEKVDGKYYVTVTIKVDGKEIKIVIEFEPSAGG [r19_262_TrROS_Hall] | 2.04 ± 0.045 | 3.03 ± 0.031 | 2.67 ± 0.087
SAGKKVTILIVVPETEEEAKKLAEELAKELAEKTGLEKVEVKVVPKGMTLEQLKELAKENNVDLVILVSAGG [r19_89_TrROS_Hall] | 3.24 ± 0.21 | 3.09 ± 0.15 | 3.17 ± 0.24
SAGKKYKVKKKITLTLEDGSKITIEIVENEDGTVEIKITDSNGKTRTITIPKEKLENMSLEELLKLLKSAGG [r19_47_TrROS_Hall] | 1.76 ± 0.1 | 1.73 ± 0.13 | 1.92 ± 0.22
SAGKLVLKPGETVEIGDMTIHFHPDGRVSATFPDGRSAAIRVTVDTDTDVVGFEFVEEHPDVGHTDAPGSAG [r5_33_TrMRF] | 1.74 ± 0.1 | 1.12 ± 0.057 | 1.47 ± 0.11
SAGKMVKVEIVIDVPPEEITEEELKAILEEEAEEVEITFDEETGKITITVTVSEEEAEKLREALKELGASAG [r5_378_TrROS_Hall] | 1.02 ± 0.13 | 1.04 ± 0.13 | 1.3 ± 0.26
SAGKPESFSIEAPPIAPPEFPLGGSYRTLPNGEVLVLITLPDGTVLVLPSLDELRELRESGLPIDISPSSAG [r5_42_TrMRF] | 0.959 ± 0.017 | 1.17 ± 0.045 | 1.07 ± 0.045
SAGKPGKTIKVTVPIPDSVKNAKIIVEYPNGKSKTITVPAGKNVTITFKVPGSSSVKVRVVLDDGSVIGSAG [r5_664_TrMRF] | 2.9 ± 0.075 | 2.45 ± 0.046 | 2.69 ± 0.054
SAGKPKVKVKKITVTITYDPETGTITIEATIEIDGKTIKLTITITLPEELRNLKPGDTITIEITIIIEPSAG [r5_714_TrROS_Hall] | 3.4 ± 0.17 | 2.86 ± 0.13 | 3.15 ± 0.12
SAGKPLPKLKTYEVDVPDNKKVKIEVYKLPDGTAIVKIKDDNGNESEIEIPLSLLENLSVEDLVKLAKSAGG [r19_47_TrMRF] | 0.77 ± 0.028 | 2.28 ± 0.047 | 1.9 ± 0.095
SAGKPRPVEIDFPMPPGFPNMPPEEMANMIARELDENGLKIEPKNMNPGEPYVRYTVEVNGKPILEITFSAG [r5_80_TrROS] | 0.762 ± 0.081 | 1.51 ± 0.12 | 1.14 ± 0.12
SAGKQEIKVEAVFPGDTLEEFMEFIREFLAEQGLKIEPTEFEIDKVQPMPGGPMIRVTAWIKIEPPDDSAGG [r19_325_TrROS] | 2.31 ± 0.11 | 2.95 ± 0.053 | 2.8 ± 0.22
SAGKTITVTSTHPDGRTATVTYTTLPDGSFKITSFTWEPWPDGTVTAKITTPDGTVITVNSIDDILKALSAG [r5_618_TrMRF] | 2.4 ± 0.1 | 3.52 ± 0.05 | 3.27 ± 0.099
SAGKTVEIKVTLKITRYEKLPDGSVKKEVKTLTITVTMSEEELNKEEIKNALKELLEKLPPDVKKIEITSAG [r5_849_TrROS_Hall] | 2.8 ± 0.17 | 4.63 ± 0.083 | 4.34 ± 0.22
SAGKVEIVVTYPDGSKAVIDSDNPLVFTITDPDGNSSTISGTGFDEALLKIVELLKEKTGKPVEKVEIKSAG [r5_119_TrMRF] | 0.377 ± 0.098 | 2.168 ± 0.021 | 1.76 ± 0.14
SAGKVIVIDAEEMTEEELKEILKKTKPGEKILIIAKSKEVAEKLKELGFEVEEVEKVPLTEEELKKLKKSAG [r5_354_TrROS_Hall] | 0.835 ± 0.063 | 1.27 ± 0.028 | 1.08 ± 0.14
SAGKWKVRTIPLPGFSITIWYDPDEGRIRISITMWMWKPKKDPENGKPKQEHRMMTMEAPIPIPPGAPISAG [r5_195_TrROS] | 1.86 ± 0.074 | 2.51 ± 0.29 | 2.3 ± 0.27
SAGKWVTIEIPIYIPGNPSQLKDLVEEIANILAAHGMKINVDVEVYPVDDYYIVKITVTVRMPPGMPIISAG [r5_217_TrROS] | 3.75 ± 0.17 | 3.23 ± 0.1 | 3.41 ± 0.19
SAGKYKIKNVQFSNNSITIEIYDDGKPKAEIPIPPNFPNMKVDAEIDEDGSIKIKFRFNGQPQEIEIPPSAG [r5_533_TrROS] | 0.819 ± 0.057 | 1.54 ± 0.17 | 1.25 ± 0.31
